Measured values reported in patent US20240150797A1, “BIOCATALYTICAL PRODUCTION OF DIHYDROCHALCONES” (Symrise AG, priority 2021, published 2024).

Key:
Format in all cases: biochemical
Settings in all cases: purified CHI in 50 mM PBS, 100 μM substrate, 25° C.
[1] = Specific activity of purified CHI, absorbance decrease at 384 nm, naringenin chalcone
Description: (§1) E. coli BL21 (DE3) cells containing one of the pET28b plasmids from Table 2 or Table 3 were used to inoculate 1 L LB medium at OD of 0.1. Cells were incubated at 37° C., 250 rpm until the OD reached 0.4-0.6 and induced by supplementing with 0.1 mM IPTG. After protein expression at 28° C., 250 rpm for 16 h, the cells were harvested by centrifugation at 4,000×g for 15 min. The harvested cells were lysed with 0.5 mg/mL lysozyme (Sigma-Aldrich), 0.4 U/mL Benzonase (Sigma-Aldrich) and BugBuster (Merck) at room temperature for 0.5 h to obtain a crude cell extract. The crude extract was centrifuged at 10,000×g for 30 min to remove the pellet. Recombinant proteins were purified by Ni-affinity chromatography (GE Healthcare). The supernatant of the crude extract was loaded on the column with 20 mM imidazole. The column was washed by 5 column volumes of 30 mM imidazole with 20 mM PBS (pH 7.4) and 500 mM NaCl. The target proteins were eluted by 150 mM imidazole with 20 mM PBS (pH 7.4) and 500 mM NaCl. Buffer exchange with 50 mM PBS (pH 7.5) was achieved by ultrafiltration with Amicon Ultra-15 (Merck). The activity of the respective purified enzyme was determined by measuring the absorbance decrease at 384 nm in the reaction mix (CHI in 50 mM PBS with 100 μM of either naringenin chalcone, hesperetin chalcone, eriodictyol chalcone, homoeriodictyol chalcone or 4-O-methyl butein at 25° C.).

[2] = Specific activity of purified CHI, absorbance decrease at 384 nm, eriodictyol chalcone
Description: as §1

[3] = Specific activity of purified CHI, absorbance decrease at 384 nm, homoeriodictyol chalcone
Description: as §1

[4] = Specific activity of purified CHI, absorbance decrease at 384 nm, hesperetin chalcone
Description: as §1

Molecule	Specific activity, Naringenin chalcone [1]	Specific activity, Eriodictyol chalcone [2]	Specific activity, Homoeriodctiol chalcone [3]	Specific activity, Hesperetin chalcone [4]
CHIera Mut2: Chalcone isomerase variant 2 from Eubacterium ramulus, genetically engineered (protein, listed as Eubacterium ramulus) MADFKFEPMRSLIYVDCVSEDYRPKLQRWIYKVHIPDSISQFEPYVTKYAFYPSFPIPPQGDRFGYARMQLTEHHWLVSPLDPRLEIKAIAETFPMDVLVWQGQIPAAAHTDAQIDSDGDAGRAAGKSNNAEGNPFIFAFLPMWWEKDLKGKGRTIEDGANYRFNMTIGFPEGVDKAEGEKWLFEKVVPILQAAPECTRVLASAVKKDINGCVMDWVLEIWFENQSGWYKVMVDDMKALEKPSWAQQDAFPFLKPYHNVCSAAVADYTPSNNLANYRGYITMR	4.4	8.3	3.5	11.5
CHIera Mut7: Chalcone isomerase variant 7 from Eubacterium ramulus, genetically engineered (protein, listed as Eubacterium ramulus) MADFKFEPMRSLIYVDCVSEDYRPKLQRWIYKVHIPDSISTFEPYVTKYAFYPSFPIPPQGDRFGYARMQLTEHHWLVSELDPRLEIRAIAETFPMDVLVWQGQIPAAAHTDAQIDSDGDAGDAARKSNNAEGNPFIFAFLPMWWEKDLKGKGRTIEDGANYRFNMTIGFPEGVDKAEGEKWLFEKVVPILQAAPECTRVLASAVKKDINGCVMDWVLEIWFENQSGWYKVMVDDMKALEKPSWAQQDAFPFLKPYHNVCSAAVADYTPSNNLANYRGYITMR	61.4	181.3	62.2	28.4
CHIera Mut4: Chalcone isomerase variant 4 from Eubacterium ramulus, genetically engineered (protein, listed as Eubacterium ramulus) MADFKFEPMRSLIYVDCVSEDYRPKLQRWIYKVHIPDSISQFEPYVTKYAFYPSFPIPPQGDRFGYARMQLTEHHWLVSELDPRLEIKAIAETFPMDVLVWQGQIPAAAHTDAQIDSDGDAGRAAKKSNNAEGNPFIFAFLPMWWEKDLKGKGRTIEDGANYRFNMTIGFPEGVDKAEGEKWLFEKVVPILQAAPECTRVLASAVKKDINGCVMDWVLEIWFENQSGWYKVMVDDMKALEKPSWAQQDAFPFLKPYHNVCSAAVADYTPSNNLANYRGYITMR	2.3	8.9	4.8	4.7
CHI11: Chalcone isomerase from Eubacterium sp., access no. SCK02381.1 (protein, Eubacterium sp) TKNMLGFEPMRSLIYVDVAKEDYRVKLENWLYKYHIPDSISQFGPYVSKYAFYQALPVPEGGERFGAIKMQLTEHYWLANPNNIAQFDHHKALTEYFPPDVLKWQGNLPDEDFQCENVEGDEARAVKGDASKGTVPFIFAFVPVWWEEDYKGAGRTIEDGPNYRWQMVIKFPDDAKDTGDKWLRDEFIPAFVECEETTRILSSKVIKEANGCEFDRVVEMWFEGPSAWKAAVGKAAKKVRRPAWFETEDFPYLTQSYGISSIFLSDIARSDNMTQYNGYVTMR	23.2	10.8	11.4	5.8
CHI3: Chalcone isomerase from Clostridium sp. JN500901, access no. WP_119972745.1 (protein, Clostridium sp. JN500901) SIEFKPMRSLIYVDVVKEDYRHMLKHWLYYHHIPDSISQFGPYVTKYAFYPALPTPPDGERFGTHRMQLTEHYWLVNPLTPEFKNKTMTEYFPVDVLKWQGNVPDDNEVAILEGKETEKVESGDAARSTGGDNGMPPFIWAFVPISWEEDLKGEGRSMEDGPNYRWQFVMKYPDGVPMEEGDKWFYKEVIPKFQDSPDVTRILTSKIIQNINDCPYQRIVEMWFNCPSGWHRAAVEKAREIKKPSWAKYDEFPYLKPKFEISSLFLTDIAESDNYTQYRGFIPMR	20.0	13.2	7.8	12.8
CHI14: Chalcone isomerase from Butyrivibrio sp. AC2005, access no. WP_026657636.1 (protein, Butyrivibrio sp. AC2005) AYEFNLMRSLIYVGLAKEEYRAKLEHWLYNHHVPESISKFSPYVTKYAFYQAYPTPPEGDRFGARKMQLTEHYWLVNEHLPEMANNIFQEFMPMDVLRWQGCIPDVDSATVHDNAESGDAGRAVGGGDFPPFIFAFVPINWEEDFKGKERTPVNGPNFRWQFLIQYPEGCSKDEGERWFHEEVVPFLTGSVRVNRLVSSKVKVNYGAPSAQFDRLVEVWFDGPEEWYDLCVNLAKDKLKKPEWAQQDTFPFLKPQHNIASMFLGDRCTSDNLTQYRGFITMR	45.9	50.4	28.8	2.1
CHI7: Chalcone isomerase from Clostridium sp. SY8519, access no. WP_013978403.1 (protein, Clostridium sp. SY8519) ADFKFEPMRSFIYVNCAKEDYRPKLQRWLYKTHVPDSIGQFEPYVTKYAFYPSFPTPPEGERFGYCSMQLTEHHWMVSDFDERLGIKAIAETFPPEVLLWQGNITEGMLEAMKKNGGAPGDDGGDSGNEARSTNMEGANPFIFCFAPYWWEDDIKGKGRTIEDGANYRWNVAIGYPEGVSAEEGDRWLFEEVIPVFEAAPECTRILHSKVKKEINGGSGMEHILEFWFENQSGWYQTAVEATKTLKKPAWAQQDQFPFLKPYHKFISVAVADFTMANNLVNYHGYIPRR	68.3	123.6	50.2	6.4
CHI13: Chalcone isomerase from Lactobacillus sp. 54-2, access no. WP_125715151.1 (protein, Lactobacillus sp. 54-2) SFEFRPMRSVIYVDVIKEKYRPKLLHWLYGHHIQDSISKFGPYVTKYAFYNAFPVPPEGERFGTRRMQMTEHYWLINEMTPEMKNNAITEYMPKDVLRWQGNIPDTDAAAAGNVDGDTGRSAGGANGCQPFVFAHVPINWEEDYKGDGRMVADGPNYRWQFVIKYPENLTEAAGEAWFHDEVVPYFKGRPEVHRFMSSRIMQDVVGCEFERLVEMWFDSEDEWYTAAVAGTTALKKPSWAQQNQFPFLTPQFNIVGMFLPDIPTSDNLAQYRGYITMR	32.7	66.2	21.7	2.0
CHI15: Chalcone isomerase from Clostridioides difficile, access no. WP_095917646.1 (protein, Clostridioides difficile) ADFEFKIMRSLIYVGLAKEEYRPKLMDWLYRHHIPDSISTFGPYCTKYAFYQAYPTPNEGERFGARKMQLTEHYWLVDEHMPEMANRIMTEYMPMDVLRWQGCIPDVENKRVHENVESGDAGRAVGGDNGCPPFIFAFVPINWEEDFRGKGRTVQDGPNYRWQFMIKYPDGISKEEGEKWFYDEVVPYFTNCCYVNRFVSSKIMINYGATAFDRVSELWFEGEEEWYKAVVEETKSFIKKPEWAQEEEFPYLKPQFNIASVFLGDIATMDAYSQYRGYIPMR	14.5	11.7	2.2	1.3
CHI10: Chalcone isomerase from Clostridium sp. SY8519, access no. WP_013977558.1 (protein, Clostridium sp. SY8519) ADFEFNPMRSLIYIDCVKNDYRHKLQYWLYKHHIPDSIAKFEPYVSKYAFYSALPVPEDGEEFGTYNYQLTEHYWLCNPLTADFAVNSLQESFTPDVLKWQGIIPDIDITPEMMAAMQNADDARASEGSEAPGFDLPPFIFAFLPLSWEFQTKGEKLTIEDGPNYRWQFLVKYPEAADAEQADKWLMEEVIPAFAQMDEVKRILSSKVKQEVNGCVYYRVVEMWFDSPSDWHRAVKEKTGAISKPEWASTDSFPYLRPKHEMASIFLSDIPTTDNLLQYRGFIPMR	0.7	2.5	0.2	1.2
